From US6716858B1, “Methods for inhibiting diabetic complications” (Kansas University Medical Center, priority 1995, dated 2004)

B1: RSA: purified rat serum albumin, unmodified (protein, UniProt P02770 25-608, looked up)
Albumin: EAHKSEIAHRFKDLGEQHFKGLVLIAFSQYLQKCPYEEHIKLVQEVTDFAKTCVADENAENCDKSIHTLFGDKLCAIPKLRDNYGELADCCAKQEPERNECFLQHKDDNPNLPPFQRPEAEAMCTSFQENPTSFLGHYLHEVARRHPYFYAPELLYYAEKYNEVLTQCCTESDKAACLTPKLDAVKEKALVAAVRQRMKCSSMQRFGERAFKAWAVARMSQRFPNAEFAEITKLATDVTKINKECCHGDLLECADDRAELAKYMCENQATISSKLQACCDKPVLQKSQCLAEIEHDNIPADLPSIAADFVEDKEVCKNYAEAKDVFLGTFLYEYSRRHPDYSVSLLLRLAKKYEATLEKCCAEGDPPACYGTVLAEFQPLVEEPKNLVKTNCELYEKLGEYGFQNAVLVRYTQKAPQVSTPTLVEAARNLGRVGTKCCTLPEAQRLPCVEDYLSAILNRLCVLHEKTPVSEKVTKCCSGSLVERRPCFSALTVDETYVPKEFKAETFTFHSDICTLPDKEKQIKKQTALAELVKHKPKATEDQLKTVMGDFAQFVDKCCKAADKDNCFATEGPNLVARSKEALA
B2: NaBH4-reduced: Amadori-RSA reduced with NaBH4 (protein, UniProt P02770 25-608, looked up)
Albumin: B1 Albumin
modifications: ribose-glycated, NaBH4-reduced

Key:
[1] = system: post-Amadori AGE formation, RNase Amadori intermediate; assay: Interrupted (post-Amadori) ribose glycation assay, RNase; format: biochemical, bovine; conditions: up to 50 mM; protein not stated (FIG. 21)
Procedure: ELISA detection of AGE products. The general method of Engvall (1981, Methods Enzymol. 70:419-439) was used to perform the ELISA. Typically, glycated protein samples were diluted to approximately 1.5 ug/ml in 0.1 M sodium carbonate buffer of pH 9.5 to 9.7. The protein was coated overnight at room temperature onto 96-well polystyrene plates by pippetting 200 ul of the protein solution in each well (0.3 ug/well). After coating, the protein was washed from the wells with a saline solution containing 0.05% Tween-20. The wells were then blocked with 200 ul of 1% casein in carbonate buffer for 2 h at 37° C. followed by washing. Rabbit anti-AGE antibodies were diluted at a titer of about 1:350 in incubation buffer, and incubated for 1 h at 37° C., followed by washing. In order to minimize background readings, antibodies R479 used to detect glycated RNase were raised against glycated BSA, and antibodies R618 used to detect glycated BSA and glycated Hb were raised against glycated RNase. An alkaline phosphatase-conjugated antibody to rabbit IgG was then added as the secondary antibody at a titer of 1:2000 or 1:2500 (depending on lot) and incubated for 1 h at 37° C., followed by washing. The p-nitrophenylphosphate substrate solution was then added (200 ul/well) to the plates, with the absorbance of the released p-nitrophenolate being monitored at 410 nm with a Dynatech MR 4000 microplate reader.
Glycation Modifications Modification with ribose or glucose was generally done at 37° C. in 0.4 M phosphate buffer of pH 7.5 containing 0.02% sodium azide. The high buffer concentration was always used with 0.5 M ribose modifications. The solutions were kept in capped tubes and opened only to remove timed aliquots that were immediately frozen for later carrying out the various analyses. “Interrupted glycation” experiments were carried out by first incubating protein with the ribose at 37° C. for 8 or 24 h, followed by immediate and extensive dialysis against frequent cold buffer changes at 4° C. The samples were then reincubated by quickly warming to 37° C. in the absence of external ribose. Aliquots were taken and frozen at various intervals for later analysis. Due to the low molecular weight of RNase, protein concentrations were remeasured after dialysis even when low molecular weight cut-off dialysis tubing was used. An alternative procedure was also devised (see below) in which interruption was achieved by simple 100-fold dilution from reaction mixtures containing 0.5 M ribose. Protein concentrations were estimated from UV spectra. The difference in molar extinction between the peak (278 nm) and trough (250 nm) was used for RNase concentration determinations in order to compensate for the general increase in UV absorbance that accompanies glycation. Time-dependent UV-difference spectral studies were carried out to characterize the glycation contributions of the UV spectrum. […]
Glycation was first carried out by incubating protein (10 mg/ml) with 0.5 M ribose at 37° C. in 0.4 M phosphate buffer at pH 7.5 containing 0.2% sodium azide for 24 h in the absence of inhibitors. Glycation was then interrupted to remove excess and reversibly bound (Schiff base) sugar by extensive dialysis against frequent cold buffer changes at 4° C.

[2] = system: Sprague-Dawley rats, glomerular changes; format: in vivo, rat; conditions: for Alcian Blue pH 1.0, scoring of glomerular staining (sulfated glycosaminoglycans) / Alcian Blue pH 2.5, scoring of glomerular staining (acidic glycosaminoglycans) / HS core protein (Ab BL-31), scoring of glomerular staining: 6 weeks, average with standard error; for Alcian Blue pH 1.0, scoring of glomerular staining (sulfated glycosaminoglycans) / Alcian Blue pH 2.5, scoring of glomerular staining (acidic glycosaminoglycans) / HS core protein (Ab BL-31), scoring of glomerular staining / Creat C-2wk / Creat C-6wk: n = 4; for Creat C-2wk: creatinine clearance at 2 weeks; for Creat C-6wk: creatinine clearance at 6 weeks; for average glomerular volume / decrease in heparan sulfate (HS) side-chain staining relative to controls / glomerular albumin deposition / cross-linking relative to controls / immunofluorescent glomerular staining for Heparan Sulfate Proteoglycan Core protein / immunofluorescent glomerular staining for Heparan Sulfate Proteoglycan side-chain / immunofluorescent glomerular staining for RSA / increase in glomerular volume (GV) relative to controls / Alcian blue pH 1.0 glomerular staining versus controls / increase in acidic glycosaminoglycans, Alcian Blue pH 2.5 staining: rat, in vivo
Procedure: Male Sprague-Dawley rats (Sasco, 100 g) were used. After a 1 week adaptation period, rats were placed in metabolic cages to obtain a 24 hour urine specimen for 2 days before administration of injections. Rats were then divided into experimental and control groups and given tail vein injections with either saline, unmodified RSA (50 mg/kg), Amadori-RSA (50 mg/kg), NaBH4-reduced Amadori-RSA (50 mg/kg), or AGE-RSA (50 mg/kg).
Rats injected with Amadori-RSA and AGE-RSA were then either left untreated, or further treated by the administration of either aminoguanidine (AG; 25 mg/kg), pyridoxamine (PM; 25 mg/kg), or a combination of AG and PM (10 mg/kg each) through the drinking water. Body weight and water intake of the rats were monitored weekly in order to adjust dosages. At the conclusion of the experimental study the rats were placed in metabolic cages to obtain 24 hour urine specimen for 2 days prior to sacrificing the animals.
After perfusion with saline, kidney sections were fixed in ice-cold 10% neutral buffered formalin. Paraffin-embedded tissue sections from all rat groups (n=4 per group) were processed for staining with Harris' alum hematoxylin and eosin (H&E), perodic acid/Schiff reagent (PAS), and alcian blue (pH 1.0 and pH 2.5) stains for histological examination. The alcian blue sections were scored by two investigators in a blinded fashion.
Parrafin-embedded sections were deparaffinized and then blocked with 10% goat serum in PBS for 30 min at room temperature. […] The sections were then rinsed for 30 min with PBS in the dark, mounted in aqueous mounting media for immunocytochemistry (Biomeda), and cover slipped. Sections were scored in a blinded fashion. Kidney sections were evaluated by the number and intensity of glomerular staining in 5 regions around the periphery of the kidney. Scores were normalized for the immunofluorescent score per 100 glomeruli with a scoring system of 0-3.
All animals studies were carried out in conformance with institutional guidelines for animal research protocols. Male Sprague-Dawley 100 g rats (Sasco Co., Omaha Nebr.) were used in these studies. After a 1 week adaptation period, rats were placed in metabolic cages for 2 days to get two 24 hour urine specimens before starting treatment. Rats were then given daily single tail vein injections for 6 weeks according to the following treatment groups: saline, unmodified RSA (50 mg/kg), Amadori-RSA (50 mg/kg), NaBH4-reduced Amadori-RSA (50 mg/kg), and AGE-RSA (50 mg/kg). Groups of rats injected with Amadori-RSA or AGE-RSA were also administered aminoguanidine (25 mg/kg/day), pyridoxamine (25 mg/kg/day), a combination of the two (10 mg/kg/day each), or with nothing added to the drinking water. Body weight and water intake of the rat were monitored weekly in order to adjust dosages. At the conclusion of the study, the rats were placed in metabolic cages for two days to get two 24 hour urine specimens before sacrificing the animals.
Total protein in urine was determined by Bio-Rad assay. Albumin in urine was determined by competitive ELISA using rabbit anti-rat serum albumin (Cappell) as primary antibody (1:2000) and goat anti-rabbit IgG (Sigma) as a secondary antibody (1:2000). Urine was tested with Multistix 8 SG (Miles) for glucose, ketone, specific gravity, blood, pH, protein, nitrite and leukocytes. Creatinine measurements were performed with a Beckman creatinine analyzer II. Intracardiac blood samples were collected before termination and were used in the determination of creatinine clearance, blood glucose (glucose oxidase, Sigma), fructosamine (nitroblue tetrazolium, Sigma), and glycated Hb (Glycotest II analytical boronate columns, Pierce).
After perfusion with saline, kidney sections were fixed in ice-cold 10% neutral buffered formalin. […]

| Molecule | inhibition of post-Amadori AGE formation [1] | Alcian Blue pH 1.0, scoring of glomerular staining (sulfated glycosaminoglycans) [2] | Alcian Blue pH 2.5, scoring of glomerular staining (acidic glycosaminoglycans) [2] | HS core protein (Ab BL-31), scoring of glomerular staining [2] | Creat C-2wk [2] | Creat C-6wk [2] | average glomerular volume [2] | decrease in heparan sulfate (HS) side-chain staining relative to controls [2] [%] | glomerular albumin deposition / cross-linking relative to controls [2] | immunofluorescent glomerular staining for Heparan Sulfate Proteoglycan Core protein [2] | immunofluorescent glomerular staining for Heparan Sulfate Proteoglycan side-chain [2] | immunofluorescent glomerular staining for RSA [2] | increase in glomerular volume (GV) relative to controls [2] [%] | Alcian blue pH 1.0 glomerular staining versus controls [2] | increase in acidic glycosaminoglycans, Alcian Blue pH 2.5 staining [2] |
| --- | --- | --- | --- | --- | --- | --- | --- | --- | --- | --- | --- | --- | --- | --- | --- |
| CC(=O)N[C@@H](CCCCN)C(=O)O [N^60 -acetyl-L-lysine, N^α-acetyl-L-lysine] | failed to exhibit any significant inhibition of AGE formation |  |  |  |  |  |  |  |  |  |  |  |  |  |  |
| AGE-RSA: Amadori-RSA re-incubated in the absence of sugar for 2-3 days at 37° C. |  | 1.25 ± 0.14 | 2.44± 0.21 | 238 ± 10 | 0.56 ± 0.04 ml/(min*100g) | 0.86 ± 0.11 ml/(min*100g) | significant increase in average glomeruli volume | 50 | four-fold increase | slightly reduced staining | highly reduced staining | elevated staining | 30 | significantly decreased | 50-60% |
| Amadori-RSA: rat serum albumin incubated with 0.5 M ribose for 12 hours, then dialyzed; negative for antigenic AGEs |  | 2.00 ± 0.41 | 2.12 ± 0.12 | 235 ± 12 | 1.02 ± 0.10 ml/(min*100g) | 0.60 ± 0.10 ml/(min*100g) | significant increase in average glomeruli volume | 25 | not different from the controls | slightly reduced staining | highly reduced staining | elevated staining | 35 | no significant difference | 50-60% |
| B1 |  | 2.75 ± 0.14 | 1.38 ± 0.24 | 226 ± 10 | 0.86 ± 0.16 ml/(min*100g) | 0.70 ± 0.02 ml/(min*100g) |  |  |  |  |  |  |  |  |  |
| B2 |  |  | 1.81 ± 0.47 | 203 ± 14 |  | 0.86 ± 0.07 ml/(min*100g) |  |  |  |  |  |  |  |  |  |
